Results on six molecules are retold here after patent publication US20200079833A1 (AstraZeneca / MedImmune, published 2020).

What all share (assay): cell-based or functional assay
Assay [1] deals with T1, glucose-dependent insulinotropic peptide (gastric inhibitory polypeptide) receptor (human, UniProt P48546 22-466).
T1 sequence (looked up): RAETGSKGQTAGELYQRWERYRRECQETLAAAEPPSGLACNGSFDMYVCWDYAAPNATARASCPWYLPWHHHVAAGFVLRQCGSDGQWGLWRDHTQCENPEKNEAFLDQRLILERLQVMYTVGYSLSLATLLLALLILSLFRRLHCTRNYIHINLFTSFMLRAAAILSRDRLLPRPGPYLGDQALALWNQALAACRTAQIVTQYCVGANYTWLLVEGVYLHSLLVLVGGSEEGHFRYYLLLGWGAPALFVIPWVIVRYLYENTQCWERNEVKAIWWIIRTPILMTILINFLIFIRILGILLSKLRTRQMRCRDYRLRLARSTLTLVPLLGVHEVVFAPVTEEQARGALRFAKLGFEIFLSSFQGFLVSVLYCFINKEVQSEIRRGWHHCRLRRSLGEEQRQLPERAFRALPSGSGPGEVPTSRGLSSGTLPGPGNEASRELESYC

The target in another assay is GLP-1 receptor (human, UniProt P43220 24-463).
The target of the next assay is glucagon receptor (human, UniProt P47871 26-477).
Chain of glucagon receptor (P47871 26-477): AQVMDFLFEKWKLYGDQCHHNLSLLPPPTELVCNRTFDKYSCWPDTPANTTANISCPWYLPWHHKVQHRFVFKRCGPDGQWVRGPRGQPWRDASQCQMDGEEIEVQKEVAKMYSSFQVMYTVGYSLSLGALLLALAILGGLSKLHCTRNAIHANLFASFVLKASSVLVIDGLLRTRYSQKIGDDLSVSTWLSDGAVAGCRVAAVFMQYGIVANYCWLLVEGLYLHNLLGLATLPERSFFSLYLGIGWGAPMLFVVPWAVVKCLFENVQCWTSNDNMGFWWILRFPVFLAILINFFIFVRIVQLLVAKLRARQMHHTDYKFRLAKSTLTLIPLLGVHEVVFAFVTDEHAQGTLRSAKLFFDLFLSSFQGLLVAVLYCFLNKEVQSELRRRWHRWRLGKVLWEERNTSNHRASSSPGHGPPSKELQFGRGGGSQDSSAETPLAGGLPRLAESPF

Starred links: 1 amine or outer side, 2 acyl side, 3 side chain; linkers in the order of their positions; H or OH if unused. Non-standard residues stand in square brackets, D forms with d. Groups on a side chain read outwards from the residue. No end group written: not given here. *: point of attachment. γGlu = O=C(O)[C@H](CCC(=O)[*:2])N[*:1]; Palmitoyl = CCCCCCCCCCCCCCCC(=O)*; αMeF = C[C@](N)(Cc1ccccc1)C(=O)O; αMeK = C[C@](N)(CCCCN)C(=O)O; αMeS = C[C@](N)(CO)C(=O)O; Aib = CC(C)(N)C(=O)O

B1: SEQ ID NO 11 (peptide)
peptide: H[Aib]EGS[αMeF]TSDVSS[αMeF]LEGEAA[αMeK]E[αMeF]VA[αMeF]VV[αMeK]GG-NH2
modifications: N-terminus assumed
SMILES: CC(C)C[C@H](NC(=O)[C@](C)(Cc1ccccc1)NC(=O)[C@H](CO)NC(=O)[C@H](CO)NC(=O)[C@@H](NC(=O)[C@H](CC(=O)O)NC(=O)[C@H](CO)NC(=O)[C@@H](NC(=O)[C@](C)(Cc1ccccc1)NC(=O)[C@H](CO)NC(=O)CNC(=O)[C@H](CCC(=O)O)NC(=O)C(C)(C)NC(=O)[C@@H](N)Cc1c[nH]cn1)[C@@H](C)O)C(C)C)C(=O)N[C@@H](CCC(=O)O)C(=O)NCC(=O)N[C@@H](CCC(=O)O)C(=O)N[C@@H](C)C(=O)N[C@@H](C)C(=O)N[C@@](C)(CCCCN)C(=O)N[C@@H](CCC(=O)O)C(=O)N[C@@](C)(Cc1ccccc1)C(=O)N[C@H](C(=O)N[C@@H](C)C(=O)N[C@@](C)(Cc1ccccc1)C(=O)N[C@H](C(=O)N[C@H](C(=O)N[C@@](C)(CCCCN)C(=O)NCC(=O)NCC(N)=O)C(C)C)C(C)C)C(C)C
On to B1, for which, in assay [1], the “Primary assay EC50 (cAMP), n1” value is 100 nM and the “Primary assay EC50 (cAMP), n2” value was 100 nM. Moreover, in the assay with GLP-1 receptor, the “Primary assay EC50 (cAMP), Mean pM GLP-1R” value was found to be 32 pM; the “Primary assay EC50 (cAMP), n1” value stood at 0.032 nM; the “Primary assay EC50 (cAMP), n2” value was determined as 0.032 nM. Also, in the assay with glucagon receptor, the “Primary assay EC50 (cAMP), n1” value stood at 100 nM and the “Primary assay EC50 (cAMP), n2” value was determined as 100 nM.

B2: SEQ ID NO 16 (peptide)
peptide: H[Aib]EGS[αMeF]T[αMeS]DVSS[αMeF]LEGEAA[αMeK]E[αMeF]IA[αMeF]VV[αMeK]GG-NH2
modifications: N-terminus assumed
SMILES: CC[C@H](C)[C@H](NC(=O)[C@](C)(Cc1ccccc1)NC(=O)[C@H](CCC(=O)O)NC(=O)[C@](C)(CCCCN)NC(=O)[C@H](C)NC(=O)[C@H](C)NC(=O)[C@H](CCC(=O)O)NC(=O)CNC(=O)[C@H](CCC(=O)O)NC(=O)[C@H](CC(C)C)NC(=O)[C@](C)(Cc1ccccc1)NC(=O)[C@H](CO)NC(=O)[C@H](CO)NC(=O)[C@@H](NC(=O)[C@H](CC(=O)O)NC(=O)[C@](C)(CO)NC(=O)[C@@H](NC(=O)[C@](C)(Cc1ccccc1)NC(=O)[C@H](CO)NC(=O)CNC(=O)[C@H](CCC(=O)O)NC(=O)C(C)(C)NC(=O)[C@@H](N)Cc1c[nH]cn1)[C@@H](C)O)C(C)C)C(=O)N[C@@H](C)C(=O)N[C@@](C)(Cc1ccccc1)C(=O)N[C@H](C(=O)N[C@H](C(=O)N[C@@](C)(CCCCN)C(=O)NCC(=O)NCC(N)=O)C(C)C)C(C)C
For B2, in assay [1], the “Primary assay EC50 (cAMP), n1” value turned out to be 100 nM and the “Primary assay EC50 (cAMP), n2” value came out at 100 nM. In addition, in the assay with GLP-1 receptor, the “Primary assay EC50 (cAMP), Mean pM GLP-1R” value was 10100 pM; the “Primary assay EC50 (cAMP), n1” value is 11 nM; the “Primary assay EC50 (cAMP), n2” value turned out to be 9.4 nM. In addition, in the assay with glucagon receptor, the “Primary assay EC50 (cAMP), n1” value was found to be 100 nM and the “Primary assay EC50 (cAMP), n2” value amounted to 100 nM.

B3: SEQ ID NO 14 (peptide)
peptide: H[Aib]QGS[αMeF]TSD[αMeF]SK[αMeF]LDSRRAQD[αMeF]VQ[αMeF]LMNT-NH2
modifications: N-terminus assumed
SMILES: CSCC[C@H](NC(=O)[C@H](CC(C)C)NC(=O)[C@](C)(Cc1ccccc1)NC(=O)[C@H](CCC(N)=O)NC(=O)[C@@H](NC(=O)[C@](C)(Cc1ccccc1)NC(=O)[C@H](CC(=O)O)NC(=O)[C@H](CCC(N)=O)NC(=O)[C@H](C)NC(=O)[C@H](CCCNC(=N)N)NC(=O)[C@H](CCCNC(=N)N)NC(=O)[C@H](CO)NC(=O)[C@H](CC(=O)O)NC(=O)[C@H](CC(C)C)NC(=O)[C@](C)(Cc1ccccc1)NC(=O)[C@H](CCCCN)NC(=O)[C@H](CO)NC(=O)[C@](C)(Cc1ccccc1)NC(=O)[C@H](CC(=O)O)NC(=O)[C@H](CO)NC(=O)[C@@H](NC(=O)[C@](C)(Cc1ccccc1)NC(=O)[C@H](CO)NC(=O)CNC(=O)[C@H](CCC(N)=O)NC(=O)C(C)(C)NC(=O)[C@@H](N)Cc1c[nH]cn1)[C@@H](C)O)C(C)C)C(=O)N[C@@H](CC(N)=O)C(=O)N[C@H](C(N)=O)[C@@H](C)O
On to B3, for which, in assay [1], the “Primary assay EC50 (cAMP), n1” value stood at 15 nM and the “Primary assay EC50 (cAMP), n2” value is 19 nM. Also, in the assay with GLP-1 receptor, the “Primary assay EC50 (cAMP), Mean pM GLP-1R” value is 2440 pM; the “Primary assay EC50 (cAMP), n1” value is 3.1 nM; the “Primary assay EC50 (cAMP), n2” value turned out to be 1.8 nM. In the assay with glucagon receptor, the “Primary assay EC50 (cAMP), n1” value turned out to be 3 nM and the “Primary assay EC50 (cAMP), n2” value is 1.1 nM.

B4: SEQ ID NO 15 (peptide)
peptide: Y[Aib]EGS[αMeF]ISD[αMeF]SIAMDKIHQQD[αMeF]VN[αMeF]LLAQK-NH2
modifications: N-terminus assumed
SMILES: CC[C@H](C)[C@H](NC(=O)[C@H](CO)NC(=O)[C@](C)(Cc1ccccc1)NC(=O)[C@H](CC(=O)O)NC(=O)[C@H](CO)NC(=O)[C@@H](NC(=O)[C@](C)(Cc1ccccc1)NC(=O)[C@H](CO)NC(=O)CNC(=O)[C@H](CCC(=O)O)NC(=O)C(C)(C)NC(=O)[C@@H](N)Cc1ccc(O)cc1)[C@@H](C)CC)C(=O)N[C@@H](C)C(=O)N[C@@H](CCSC)C(=O)N[C@@H](CC(=O)O)C(=O)N[C@@H](CCCCN)C(=O)N[C@H](C(=O)N[C@@H](Cc1c[nH]cn1)C(=O)N[C@@H](CCC(N)=O)C(=O)N[C@@H](CCC(N)=O)C(=O)N[C@@H](CC(=O)O)C(=O)N[C@@](C)(Cc1ccccc1)C(=O)N[C@H](C(=O)N[C@@H](CC(N)=O)C(=O)N[C@@](C)(Cc1ccccc1)C(=O)N[C@@H](CC(C)C)C(=O)N[C@@H](CC(C)C)C(=O)N[C@@H](C)C(=O)N[C@@H](CCC(N)=O)C(=O)N[C@@H](CCCCN)C(N)=O)C(C)C)[C@@H](C)CC
As for B4, in assay [1], the “Primary assay EC50 (cAMP), n1” value was found to be 0.16 nM and the “Primary assay EC50 (cAMP), n2” value came to 0.079 nM. In the assay with GLP-1 receptor, the “Primary assay EC50 (cAMP), Mean pM GLP-1R” value was determined as 119000 pM; the “Primary assay EC50 (cAMP), n1” value was 120 nM; the “Primary assay EC50 (cAMP), n2” value turned out to be 120 nM. Besides, in the assay with glucagon receptor, the “Primary assay EC50 (cAMP), n1” value worked out at 120 nM and the “Primary assay EC50 (cAMP), n2” value was determined as 120 nM.

B5: SEQ ID NO 13 (peptide)
peptide: H[Aib]QGS[αMeF]TSDK([γGlu-Palmitoyl])SE[αMeF]LDSERARD[αMeF]VA[αMeF]LEAGG-NH2
modifications: N-terminus assumed
SMILES: CCCCCCCCCCCCCCCC(=O)N[C@@H](CCC(=O)NCCCC[C@H](NC(=O)[C@H](CC(=O)O)NC(=O)[C@H](CO)NC(=O)[C@@H](NC(=O)[C@](C)(Cc1ccccc1)NC(=O)[C@H](CO)NC(=O)CNC(=O)[C@H](CCC(N)=O)NC(=O)C(C)(C)NC(=O)[C@@H](N)Cc1c[nH]cn1)[C@@H](C)O)C(=O)N[C@@H](CO)C(=O)N[C@@H](CCC(=O)O)C(=O)N[C@@](C)(Cc1ccccc1)C(=O)N[C@@H](CC(C)C)C(=O)N[C@@H](CC(=O)O)C(=O)N[C@@H](CO)C(=O)N[C@@H](CCC(=O)O)C(=O)N[C@@H](CCCNC(=N)N)C(=O)N[C@@H](C)C(=O)N[C@@H](CCCNC(=N)N)C(=O)N[C@@H](CC(=O)O)C(=O)N[C@@](C)(Cc1ccccc1)C(=O)N[C@H](C(=O)N[C@@H](C)C(=O)N[C@@](C)(Cc1ccccc1)C(=O)N[C@@H](CC(C)C)C(=O)N[C@@H](CCC(=O)O)C(=O)N[C@@H](C)C(=O)NCC(=O)NCC(N)=O)C(C)C)C(=O)O
Regarding B5, in assay [1], the “Primary assay EC50 (cAMP), n1” value turned out to be 0.69 nM and the “Primary assay EC50 (cAMP), n2” value was 0.63 nM. Moreover, in the assay with GLP-1 receptor, the “Primary assay EC50 (cAMP), Mean pM GLP-1R” value turned out to be 16 pM; the “Primary assay EC50 (cAMP), n1” value was 0.022 nM; the “Primary assay EC50 (cAMP), n2” value was 0.0096 nM. Also, in the assay with glucagon receptor, the “Primary assay EC50 (cAMP), n1” value was 7.6 nM and the “Primary assay EC50 (cAMP), n2” value worked out at 4.1 nM.

B6: SEQ ID NO 12 (peptide)
peptide: H[Aib]EGS[αMeF]SSEVSS[αMeF]VEGEAA[αMeK]E[αMeF]VA[αMeF]VV[αMeK]GG-NH2
modifications: N-terminus assumed
SMILES: CC(C)[C@H](NC(=O)[C@H](CCC(=O)O)NC(=O)[C@H](CO)NC(=O)[C@H](CO)NC(=O)[C@](C)(Cc1ccccc1)NC(=O)[C@H](CO)NC(=O)CNC(=O)[C@H](CCC(=O)O)NC(=O)C(C)(C)NC(=O)[C@@H](N)Cc1c[nH]cn1)C(=O)N[C@@H](CO)C(=O)N[C@@H](CO)C(=O)N[C@@](C)(Cc1ccccc1)C(=O)N[C@H](C(=O)N[C@@H](CCC(=O)O)C(=O)NCC(=O)N[C@@H](CCC(=O)O)C(=O)N[C@@H](C)C(=O)N[C@@H](C)C(=O)N[C@@](C)(CCCCN)C(=O)N[C@@H](CCC(=O)O)C(=O)N[C@@](C)(Cc1ccccc1)C(=O)N[C@H](C(=O)N[C@@H](C)C(=O)N[C@@](C)(Cc1ccccc1)C(=O)N[C@H](C(=O)N[C@H](C(=O)N[C@@](C)(CCCCN)C(=O)NCC(=O)NCC(N)=O)C(C)C)C(C)C)C(C)C)C(C)C
As for B6, in assay [1], the “Primary assay EC50 (cAMP), n1” value worked out at 45 nM and the “Primary assay EC50 (cAMP), n2” value stood at 45 nM. Further, in the assay with GLP-1 receptor, the “Primary assay EC50 (cAMP), Mean pM GLP-1R” value is 2100 pM; the “Primary assay EC50 (cAMP), n1” value was found to be 2.1 nM; the “Primary assay EC50 (cAMP), n2” value is 2.1 nM. Also, in the assay with glucagon receptor, the “Primary assay EC50 (cAMP), n1” value stood at 10 nM and the “Primary assay EC50 (cAMP), n2” value is 13 nM.
